Reference: the DeepSol protein solubility set

Test: soluble on expression in E. coli; label from the status in PepcDB or PDB records
For “TVHKQDGKVLEIELSSLKEALSFVSLIDGYYRLTADAHHYLCKEVAPPAVLENIHSNCHGPISMDFAISKLKKAGNQTGLYVLRCSPKDFNKYFLTFAVERENVIEYKHCLITKNENGEYNLSGTKRNFSNLKDLLNCYQMETVRSDSIIFQFTKCCPPKPKDKSNLLVFRTNGISDVQISPTLQRHNNVNQMVFHKIRNEDLIFNESLGQGTFTKIFKGVRREVGDYGQLHKTEVLLKVLDKAHRNYSESFFEAASMMSQLSHKHLVLNYGVCVCGEENILVQEFVKFGSLDTYLKKNKNSINILWKLGVAKQLAWAMHFLEEKSLIHGNVCAKNILLIREEDRRTGNPPFIKLSDPGISITVLPKDILQERIPWVPPECIENPKNLNLATDKWSFGTTLWEICSGGDKPLSALDSQRKLQFYEDKHQLPAPKWTELANLINNCMDYEPDFRPAFRAVIRDLNSLFTPDYELLTENDMLPNMRIGALGFSGAFEDRDPTQFEERHLKFLQQLGKGNFGSVEMCRYDPLQDNTGEVVAVKKLQHSTEEHLRDFEREIEILKSLQHDNIVKYKGVCYSAGRRNLRLIMEYLPYGSLRDYLQKHKERIDHKKLLQYTSQICKGMEYLGTKRYIHRDLATRNILVENENRVKIGDFGLTKVLPQDKEYYKVKEPGESPIFWYAPESLTESKFSVASDVWSFGVVLYELFTYIEKSKSPPVEFMRMIGNDKQGQMIVFHLIELLKSNGRLPRPEGCPDEIYVIMTECWNNNVSQRPSFRDLSLRVDQIRDSIAA”, the “soluble on expression in E. coli” value was “not soluble”. In the case of “VAASWREQFIRAEQTHWDAVTETASETYWEGGVLSDVTALAPDPATLFISNSMPIRDMDRFGGPRDADLTVLGNRGASGIDGITSTALGAGSATSDPLVLVTGDLAYYHDMNGLLALGRCAVDATVVLLNNDGGGIFHMLPIEDHPTFEDQFRTPHGLDFEPTEALYSLQFERVADRRQFRERFAESVQTDGTQVIEVRFDAGDSHAVRDQLTE”, the “soluble on expression in E. coli” value is reported as “not soluble”. With “VAFLCQLFGVYRSSYQAWHHRVKKPDTERIRLKSLVREAFNEGKGSAGARTIAAMVTAKGIPLGRWRAGKLMAELGLVSRQQPKHRYSHQEQEHLDIPNDLDRQFTVTEPNQVWCGDVTYIWTGKCWAYLAVVLDLFARKPIGWAMSFSADSELTKRALEMAFESRRKPQGVMFHRDQGSHYTRKAFRRLLWRYGIKQSLSRRGNCWDNSPMERFFRSLKSEWVPEEGYSDFRKAFRSITNYIQGEPRQSRDFPYVFITFLYPASIRRANGAGAG” the “soluble on expression in E. coli” value was “soluble”. For “VAITDNRGVITHVNEKFCDISQYEYYELVGTTHKIINSGFHPRSFFKQMWKTIAQGNIWKGEICNRTKQGKLYWVDTTIVPLKDNDGLLKNYISIRTDITQ”, the “soluble on expression in E. coli” value was “not soluble”. With “VASKAIFYHAGCPVCVSAEQAVANAIDPSKYTVEIVHLGTDKARIAEAEKAGVKSVPALVIDGAAFHINFGAGIDDLKGS” the “soluble on expression in E. coli” value was “soluble”. In the case of “VDFHGYARSGIGWTGSGGEQQCFQTTGAQSKYRLGNECETYAELKLGQEVWKEGDKSFYFDTNVAYSVAQQNDWEATDPAFREANVQGKNLIEWLPGSTIWAGKRFYQRHDVHMIDFYYWDISGPGAGLENIDVGFGKLSLAATRSSEAGGSSSFASNNIYDYTNETANDVFDVRLAQMEINPGGTLELGVDYGRANLRDNYRLVDGASKDGWLFTAEHTQSVLKGFNKFVVQYATDSMTSQGKGLSQGSGVAFDNEKFAYNINNNGHMLRILDHGAISMGDNWDMMYVGMYQDINWDNDNGTKWWTVGIRPMYKWTPIMSTVMEIGYDNVESQRTGDKNNQYKITLAQQWQAGDSIWSRPAIRVFATYAKWDEKWGYDYTGNADNNANFGKAVPADFNGGSFGRGDSDEWTFGAQMEIWW”, the “soluble on expression in E. coli” value is reported as “soluble”. With “VEAHPSLTLFSQLRIEHEDMAIAEDDWAWLRHKGHLRLGAALDETSPFNVRLDDENYEGITADVATLVGQLLGMRIKVVSFDTHADAVAALAAGKIDLLGSHYSSAGDSSLVLSQPYARDRLAVFKRMGEKRNSPEDLAGLSVAVAREHVGELRQRFPRARFVVFGSHDEAVAAVAFGHTDLYLDDVLSAYHRINRSYYGYVRFERFADARLEGGYGFLLRRGDTNLLRVVNSAIGAINQDRLESIARRWVGSGSLPTGQRIALTPQESRWIARHPVVRLVINDDLAPLAFFNSDETFSGIASDLLDMISRRTGLHFQVTPRSGGFPEQIGVLARKEADLAIMSRSSKREEMLRFTRSFLSTSYVLVTRADDKGRAEIPGSLDGKRIAIPAGHVGMQQVRERYPQASMVEVGVALDAMNLVYEGRADAAVVPLVTARYYIVRLFRERLAIADLVPIGAATAHFAVRRGDAELQSILDKALLSISPDDLSDIVNRW” the “soluble on expression in E. coli” value was “not soluble”. In the case of “VEQSANAFLLVNCNGVVEYVNPSFTAITQYSSEEVSGNKLSELPALENLNQLLLEANSSLTSSNSWQGEFKSRRKNLEPYWGQLSISKVYGDNRELTHYIGIYEDIT”, the “soluble on expression in E. coli” value is reported as “not soluble”. With “VFLDFEKGIEEFEAKIEQLRFAQDNSALDISAEIARLQTKSLGLTKSVYAKLTPWQISQVARHPQRPYTLDYVQHLFTDFEELHGDRNFADDQAIVGGLARFNGQTVMIIGHQKGRDTKEKIHRNFGMPKPEGYRKALRLMRLAEKFSI” the “soluble on expression in E. coli” value was “not soluble”. In the case of “VGDLYYHVGVNATFIKNELTEVNGSRDEWQGFNPHAKGTITYAKTGHSIGYFNLIKTDGVFQSQQEIDAYVDKNGNKIQPNAQPGDLRFVDYNGDGKIDNNDRQDVGSAFPKVNLGVSLGAEWKGLDLNMFFDGNFGNKIYNAQYYSTVYNESTGNQYAERMNSWTENNHSDIPRCLFGTSDPNGTNWGYTDRWLENGSFLRLKTLELGYTLPKVWVSKAGLQNVRVYTAMENLFTITDYKGYTPDLGMVDADGAGTSGGSGVMTRGCDDGRYPMARTITFGLQVNF”, the “soluble on expression in E. coli” value is reported as “not soluble”. With “VKIRLHTLLAVLTAAPLLLAAAGCGSKPPSGSPETGAGAGTVATTPASSPVTLAETGSTLLYPLFNLWGPAFHERYPNVTITAQGTGSGAGIAQAAAGTVNIGASDAYLSEGDMAAHKGLMNIALAISAQQVNYNLPGVSEHLKLNGKVLAAMYQGTIKTWDDPQIAALNPGVNLPGTAVVPLHRSDGSGDTFLFTQYLSKQDPEGWGKSPGFGTTVDFPAVPGALGENGNGGMVTGCAETPGCVAYIGISFLDQASQRGLGEAQLGNSSGNFLLPDAQSIQAAAAGFASKTPANQAISMIDGPAPDGYPIINYEYAIVNNRQKDAATAQTLQAFLHWAITDGNKASFLDQVHFQPLPPAVVKLSDALIATISS” the “soluble on expression in E. coli” value was “soluble”. In the case of “VKPKGAFKAFTGEGQKLGSTAPQVLNTSSPAQQAENEAKASSSILINEAEPTTNIQIRLADGGRLVQKFNHSHRISDIRLFIVDARPAMAATSFVLMTTFPNKELADENQTLKEANLLNAVIVQRLT”, the “soluble on expression in E. coli” value is reported as “soluble”. In the case of “VPGVWSPPCPTTPRVGVVAALVAATLTGCGSGDSTVAKTPEATPSLSTAHPAPPSSEPSPPSATAAPPSNHSAAPVDPCAVNLASPTIAKVVSELPRDPRSEQPWNPEPLAGNYNECAQLSAVVIKANTNAGNPTTRAVMFHLGKYIPQGVPDTYGFTGIDTSQCTGDTVALTYASGIGLNNVVKFRWNGGGVELIGNTTGG”, the “soluble on expression in E. coli” value is reported as “soluble”. With “VPRGSAKGDGVTDDTAALTSALNDTPVGQKINGNGKTYKVTSLPDISRFINTRFVYERIPGQPLYYASEEFVQGELFKITDTPYYNAWPQDKAFVYENVIYAPYMGSDRAGVSRLHVSWVKSGDDGQTWSTPEWLTDLHPDYPTVNYHCMSMGVCRNRLFAMIETRTLAKNALTNCALWDRPMSRSLHLTGGITKAANQRYATIHVPDHGLFVGDFVNFSNSAVTGVSGDMTVATVIDKDNFTVLTPNQQTSDLNNAGKNWHMGTSFHKSPWRKTDLGLIPSVTEVHSFATIDNNGFAMGYHQGDVAPREVGLFYFPDAFNSPSNYVRRQIPSEYEPDASEPCIKYYDGVLYLITRGTRGDRLGSSLHRSRDIGQTWESLRFPHNVHHTTLPFAKVGDDLIMFGSERAENEWEAGAPDDRYKASYPRTFYARLNVNNWNADDIEWVNITDQIYQGGIVNSGVGVGSVVVKDNYIYYMFGGEDHFNPWTYGDNSAKDPFKSDGHPSDLYCYKMKIGPDNRVSRDFRYGAVPNRAVPVFFDTNGVRTVPAPMEFTGDLGLGHVTIRASTSSNIRSEVLMEGEYGFIGKSIPTDNPAGQRIIFCGGEGTSSTTGAQITLYGANNTDSRRIVYNGDEHLFQSADVKPYNDNVTALGGPSNRFTTAYLGSNPIVT” the “soluble on expression in E. coli” value was “soluble”. In the case of “VQRCVIIQKDQHGFGFTVSGDRIVLVQSVRPGGAAMKAGVKEGDRIIKVNGTMVTNSSHLEVVKLIKSGAYVALTLLGSS”, the “soluble on expression in E. coli” value is reported as “soluble”. With “VRDHLPPGLPPDPFADDPCDPSAALEAVEPGQPLDQQERMAVEADLADLAVYEALLAHKGIRGLVVCCDECQQDHYHDWDMLRSNLLQLLIDGTVRPHEPAYDPEPDSYVTWDYCRGYADASLNEAAPDADRFRRR” the “soluble on expression in E. coli” value was “soluble”. For “VRQLDSDGFAALMESIPHAISVHDRERNLVFSNPACAALIGYDTAEFADLEHEQLFHPDDAELWGTMLARVLGTESTSATAHLRIRHREGHWIWVRVAASTFTAGAERLVALVLQDESDTIWGNPTAARQPIR”, the “soluble on expression in E. coli” value was “not soluble”. With “VSIDSSRRIIQAIEQNEFHLYCQKIIPAGSNQESSSYYEVLIRMAEEESNLIPPGAFLPFVEKYNLMPRLDSWVVEQVIHYLADQRADPRISFCINLARSTLIDPVFYDRVWKLLNAAGIEPQRICFEIETADVAANLLSAVQFVKKVQQSGCLVSLCSFNHDRGSFDLLKHIQADFLKIDGSLICNILRDAEDLKKVENIGKFARALKIRTIGELVETRNILEKLAKIGIDYAQGFIVGRPLPIEKIEYRADSMDDL” the “soluble on expression in E. coli” value was “not soluble”. With “VSMDELDPHVARALTLAARFQSALDGTLNQMNNGSFRATDEAETVEVTINGHQWLTGLRIEDGLLKKLGAEAVAQRVNEALHNAQAAASAYNDAAGEQLTAALSAMSRAMNEGMA” the “soluble on expression in E. coli” value was “soluble”. With “VTLLVKSPNQRHRDLELSGDRGWSVGHLKAHLSRVYPERPRPEDQRLIYSGKLLLDHQCLRDLLPKQEKRHVLHLVCNVK” the “soluble on expression in E. coli” value was “soluble”. With “VVCREASHAGSWYTASGPQLNAQLEGWLSQVQSTKRPARAIIAPHAGYTYCGSCAAHAYKQVDPSITRRIFILGPSHHVPLSRCALSSVDIYRTPLYDLRIDQKIYGELWKTGMFERMSLQTDEDEHSIEMHLPYTAKAMESHKDEFTIIPVLVGALSESKEQEFGKLFSKYLADPSNLFVVSSDFCHWGQRFRYSYYDESQGEIYRSIEHLDKMGMSIIEQLDPVSFSNYLKKYHNTICGRHPIGVLLNAITELQKNGMNMSFSFLNYAQSSQCRNWQDSSVSYAAGALTVH” the “soluble on expression in E. coli” value was “soluble”. In the case of “VVLSTAFSQMFGIDYPIVSAPMDLIAGGELAAAVSGAGGLGLIGGGYGDRDWLARQFDLAAGAPVGCGFITWSLARQPQLLDLALQYEPVAVMLSFGDPAVFADAIKSAGTRLVCQIQNRTQAERALQVGADVLVAQGTEAGGHGHGPRSTLTLVPEIVDLVTARGTDIPVIAAGGIADGRGLAAALMLGAAGVLVGTRFYATVEALSTPQARDPLLAATGDDMCRTTIYDQLRRYPWPQGHTMSVLSNALTDQFEDTELDILHREEAMARYWRAVAARDYSIANVTAGQAAGLVNAVLPAADVITGMAQQAARTLTAMRAV”, the “soluble on expression in E. coli” value is reported as “not soluble”. With “WSYEHLHLTNRIKLLYAPTFRDNELGMAKLHLDIAEMKQALGNEYQLILKLHPSISNDLEKLDDDFVIYVDKETPIETLLPVVDILITDYSSIPFEFALLQKPMIFFTYDLTEYNNARGLSDGFLETIPGPHVFTTTELIEVIQNNTFDLEKVRLFAEKWNKYSDGFSSERFVSFLKE” the “soluble on expression in E. coli” value was “not soluble”.
